# Laboratory results taken from PMC5493754, “Myosin 7 and its adaptors link cadherins to actin” (Nature Communications, 2017).
# Residue numbers refer to the chain shown, from its start. In names and notes the source's numbering stands.
# B1: Myosin 7b MF2 (domain or fragment, human, UniProt Q6PIF6 1605-2116, looked up)
# chain: KEKLHTLEEFSYEFFRAPEKDMVSMAVLPLARARGHLWAYSCEPLRQPLLKRVHANVDLWDIACQIFVAILRYMGDYPSRQAWPTLELTDQIFTLALQHPALQDEVYCQILKQLTHNSNRHSEERGWQLLWLCTGLFPPSKGLLPHAQKFIDTRRGKLLAPDCSRRIQKVLRTGPRKQPPHQVEVEAAEQNVSRICHKIYFPNDTSEMLEVVANTRVRDVCDSIATRLQLASWEGCSLFIKISDKVISQKEGDFFFDSLREVSDWVKKNKPQKEGAPVTLPYQVYFMRKLWLNISPGKDVNADTILHYHQELPKYLRGFHKCSREDAIHLAGLIYKAQFNNDRSQLASVPKILRELVPENLTRLMSSEEWKKSILLAYDKHKDKTVEEAKVAFLKWICRWPTFGSAFFEVKQTSEPSYPDVILIAINRHGVLLIHPKTKDLLTTYPFTKISSWSSGSTYFHMALGSLGRGSRLLCETSLGYKMDDLLTSYVQQLLSAMNKQRGSKAPALAST
# notes: also called M7b MF2; Myo7b MF2; source: E. coli (BL21-AI, BL21 (DE3) Rosetta or BL21-Gold (DE3)), purified (Histrap, CaptoQ, gel filtration)
# B2: Harmonin-a PDZ3c D546R (domain or fragment, human, UniProt Q9Y6N9-1 428-552, looked up)
# chain: QDFRKYEEGFDPYSMFTPEQIMGKDVRLLRIKKEGSLDLALEGGVDSPIGKVVVSAVYERGAAERHGGIVKGDEIMAINGKIVTDYTLAEAEAALQKAWNQGGDWIDLVVAVCPPKEYRDELTFF
# notes: Harmonin-a1 (USH1C), human, residues 428-552 of UniProt Q9Y6N9-1; also called PDZ3c (isoA) D546R; source: E. coli BL21 (DE3) Rosetta, purified similarly as wild type
# B3: Myosin 7a MF2 (domain or fragment, human, UniProt Q13402-1 1702-2215, looked up)
# chain: TAEPEVRAKPYTLEEFSYDYFRPPPKHTLSRVMVSKARGKDRLWSHTREPLKQALLKKLLGSEELSQEACLAFIAVLKYMGDYPSKRTRSVNELTDQIFEGPLKAEPLKDEAYVQILKQLTDNHIRYSEERGWELLWLCTGLFPPSNILLPHVQRFLQSRKHCPLAIDCLQRLQKALRNGSRKYPPHLVEVEAIQHKTTQIFHKVYFPDDTDEAFEVESSTKAKDFCQNIATRLLLKSSEGFSLFVKIADKVLSVPENDFFFDFVRHLTDWIKKARPIKDGIVPSLTYQVFFMKKLWTTTVPGKDPMADSIFHYYQELPKYLRGYHKCTREEVLQLGALIYRVKFEEDKSYFPSIPKLLRELVPQDLIRQVSPDDWKRSIVAYFNKHAGKSKEEAKLAFLKLIFKWPTFGSAFFEVKQTTEPNFPEILLIAINKYGVSLIDPKTKDILTTHPFTKISNWSSGNTYFHITIGNLVRGSKLLCETSLGYKMDDLLTSYISQMLTAMSKQRGSRSGK
# notes: Myosin 7a, human, C-terminal MyTH4-FERM domain (MF2), residues 1702-2215 of UniProt Q13402-1; Thrombin site of the vector replaced by an SSG linker; also called M7a MF2; Myo7a MF2; source: E. coli (BL21-AI, BL21 (DE3) Rosetta or BL21-Gold (DE3)), purified (Histrap, CaptoQ, gel filtration)
# B4: YFP-Harmonin-a PDZ3c E469A (domain or fragment, human, UniProt Q9Y6N9-1 428-552, looked up)
# chain: B2 chain with E42A, R119D
# notes: Harmonin-a1 (USH1C), human, residues 428-552 of UniProt Q9Y6N9-1; also called ^YFPPDZ3c (isoA) E469A; PDZ3 E469A; source: E. coli BL21 (DE3) Rosetta, purified similarly as wild type
# B5: YFP-Harmonin-a PDZ3c I476W (domain or fragment, human, UniProt Q9Y6N9-1 428-552, looked up)
# chain: B2 chain with I49W, R119D
# notes: Harmonin-a1 (USH1C), human, residues 428-552 of UniProt Q9Y6N9-1; also called ^YFPPDZ3c (isoA) I476W; source: E. coli BL21 (DE3) Rosetta, purified similarly as wild type
# B6: YFP-Harmonin-a PDZ3c E469A-I476W (domain or fragment, human, UniProt Q9Y6N9-1 428-552, looked up)
# chain: B2 chain with E42A, I49W, R119D
# notes: Harmonin-a1 (USH1C), human, residues 428-552 of UniProt Q9Y6N9-1; also called ^YFPPDZ3c (isoA) E469A-I476W; source: E. coli BL21 (DE3) Rosetta, purified similarly as wild type
# B7: Harmonin NPDZ1.PDZ2 (domain or fragment, human, UniProt Q9Y6N9-1 1-301, looked up)
# chain: MDRKVAREFRHKVDFLIENDAEKDYLYDVLRMYHQTMDVAVLVGDLKLVINEPSRLPLFDAIRPLIPLKHQVEYDQLTPRRSRKLKEVRLDRLHPEGLGLSVRGGLEFGCGLFISHLIKGGQADSVGLQVGDEIVRINGYSISSCTHEEVINLIRTKKTVSIKVRHIGLIPVKSSPDEPLTWQYVDQFVSESGGVRGSLGSPGNRENKEKKVFISLVGSRGLGCSISSGPIQKPGIFISHVKPGSLSAEVGLEIGDQIVEVNGVDFSNLDHKEAVNVLKSSRSLTISIVAAAGRELFMTDR
# notes: Harmonin-a1 (USH1C), human, N-terminal domain, PDZ1 and PDZ2, residues 1-301 of UniProt Q9Y6N9-1; source: E. coli BL21 (DE3) Rosetta, purified (Glutathione Sepharose 4B, size-exclusion chromatography)
# Experiments:
# Settings in all cases: both partners purified
# [1] = molecular target: T1, YFP-Full length (FL)-harmonin (harmonin-a1) (human, UniProt Q9Y6N9-1 1-552); assay: MST; as a1 but 150 mM NaCl (for FL-Harmonin-a); YFP-fused partner constant at 100 nM, non-fluorescent protein titrated
# T1 construct: Harmonin-a1 (USH1C), human, residues 1-552 of UniProt Q9Y6N9-1; also called ^YFPFL (isoA); ^YFPFL; source: E. coli BL21 (DE3) Rosetta, purified (Glutathione Sepharose 4B, size-exclusion chromatography)
# T1 sequence (looked up): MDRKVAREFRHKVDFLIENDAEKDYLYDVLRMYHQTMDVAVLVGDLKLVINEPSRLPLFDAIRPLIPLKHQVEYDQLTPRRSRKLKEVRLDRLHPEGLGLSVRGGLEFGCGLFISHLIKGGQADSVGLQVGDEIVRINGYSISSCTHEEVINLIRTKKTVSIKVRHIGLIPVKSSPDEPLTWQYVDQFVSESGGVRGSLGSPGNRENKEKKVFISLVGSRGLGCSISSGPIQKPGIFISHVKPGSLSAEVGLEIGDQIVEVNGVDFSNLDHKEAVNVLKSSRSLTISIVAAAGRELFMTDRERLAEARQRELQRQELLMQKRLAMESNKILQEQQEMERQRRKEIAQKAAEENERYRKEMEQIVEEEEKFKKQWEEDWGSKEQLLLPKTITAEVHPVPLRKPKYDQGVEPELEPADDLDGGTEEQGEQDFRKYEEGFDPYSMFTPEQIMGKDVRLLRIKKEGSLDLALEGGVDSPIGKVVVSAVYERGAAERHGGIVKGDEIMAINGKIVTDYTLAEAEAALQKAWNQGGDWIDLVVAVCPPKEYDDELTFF
# [2] = molecular target: T2, YFP-Myosin 7b MF2 (human, UniProt Q6PIF6 1605-2116); assay: MST; YFP-fused partner constant at 100 nM, non-fluorescent protein titrated (16 two-fold dilutions); 20 mM Hepes pH 7.0, 100 mM NaCl, 1 mM EGTA, 0.5 mM TCEP, 0.05% Tween 20; Monolith NT.115
# T2 construct: Myosin 7b, human, MF2, residues 1605-2116 of UniProt Q6PIF6; pET14-YFP vector; also called ^YFPM7b MF2; source: E. coli (BL21-AI, BL21 (DE3) Rosetta or BL21-Gold (DE3)), purified (Histrap, CaptoQ, gel filtration)
# T2 sequence (looked up): B1 chain
# [3] = molecular target: B3; assay: as above
# [4] = molecular target: B1; assay: as above
# [5] = molecular target: T1, YFP-Full length (FL)-harmonin …; assay: MST; as a1 but 150 mM NaCl (for FL-Harmonin-a); YFP-fused partner constant at 100 nM, non-fluorescent protein titrated; remark: listed apart in the source
Binder,Kd [3] [µM],Kd [4] [µM],further results
B1,–,–,Kd [1]: 2.05 ± 0.79 µM
B2,–,–,Kd [2]: > 300 µM
B3,–,–,Kd [1]: 2.36 µM
B4,5.4 ± 1.5,6.11 ± 0.44,–
B5,17.8 ± 1.1,18.1 ± 1.4,–
B6,70.4 ± 7.2,38.1 ± 4.9,–
B7,–,–,Kd [5]: 3.4 ± 0.1 µM
